In patent US20220025032A1 (Novartis, published 2022):
Read-outs that look alike come from different tables or passages of the source.

T1: Human BTC-avitag-biotin (human, UniProt P35070 32-111, biotin on the avitag)
T1 construct: also called biotin-BTC; soluble human BTC-avitag-biotin
T1 sequence: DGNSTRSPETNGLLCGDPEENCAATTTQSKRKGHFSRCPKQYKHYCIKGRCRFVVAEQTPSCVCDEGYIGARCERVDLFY

T2: Human BTC (human, UniProt P35070 32-111)
T2 construct: Soluble human BTC of the Biacore, ELISA, MSD and cell assays; also called human betacellulin; soluble human BTC
T2 sequence: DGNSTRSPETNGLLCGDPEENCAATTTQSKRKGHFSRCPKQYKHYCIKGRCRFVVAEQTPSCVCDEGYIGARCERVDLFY

T3: membrane-bound human BTC on 293F-hBTC cells (human, UniProt P35070 32-111)
T3 construct: the transfected construct is not described; also called membrane-anchored BTC
T3 sequence: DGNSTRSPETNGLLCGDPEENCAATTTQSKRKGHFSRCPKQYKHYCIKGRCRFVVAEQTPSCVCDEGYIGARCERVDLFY

B1: NVS12 (bispecific antibody)
heavy: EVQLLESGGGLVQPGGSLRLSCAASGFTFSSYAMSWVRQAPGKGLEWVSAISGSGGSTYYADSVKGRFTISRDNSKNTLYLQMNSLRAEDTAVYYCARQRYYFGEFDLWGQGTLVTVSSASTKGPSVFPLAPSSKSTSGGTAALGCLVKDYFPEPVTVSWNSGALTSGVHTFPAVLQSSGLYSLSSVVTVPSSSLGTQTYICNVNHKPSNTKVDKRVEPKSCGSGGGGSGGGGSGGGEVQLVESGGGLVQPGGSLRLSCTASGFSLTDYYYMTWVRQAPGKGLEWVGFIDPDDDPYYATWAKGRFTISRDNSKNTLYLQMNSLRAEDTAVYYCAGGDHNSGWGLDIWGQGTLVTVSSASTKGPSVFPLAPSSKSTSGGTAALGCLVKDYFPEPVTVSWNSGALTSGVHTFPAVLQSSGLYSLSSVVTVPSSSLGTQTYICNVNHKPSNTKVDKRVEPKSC
light: SYELTQPPSVSVSPGQTASITCSGDKLGDKYAYWYQQKPGQSPVLVIYQDSKRPSGIPERFSGSNSGNTATLTISGTQAEDEADYYCQAFDYLYSLGVFGGGTKLTVLGQPKAAPSVTLFPPSSEELQANKATLVCLISDFYPGAVTVAWKADSSPVKAGVETTTPSKQSNNKYAASSYLSLTPEQWKSHRSYSCQVTHEGSTVEKTVAPTECSGSGGGGSGGGGSGGGEIVMTQSPSTLSASVGDRVIITCQASEIIHSWLAWYQQKPGKAPKLLIYLASTLASGVPSRFSGSGSGAEFTLTISSLQPDDFATYYCQNVYLASTNGANFGQGTKLTVLKRTVAAPSVFIFPPSDEQLKSGTASVVCLLNNFYPREAKVQWKVDNALQSGNSQESVTEQDSKDSTYSLSSTLTLSKADYEKHKVYACEVTHQGLSSPVTKSFNRGEC
notes: Fab-Fab: NVS2 Fab, (GSGGG)3 linker, NVS8 Fab; also called anti-BTC/anti-VEGF bispecific Fab; bispecific Fab-Fab
B2: NVS13 (bispecific antibody)
heavy: QVQLLESGGGLVQPGGSLRLSCAASGFTFSSYAMSWVRQAPGKGLEWVSGLGHVGYTTYTDSVKGRFTISRDNSKNTLYLQMNSLRAEDTAVYYCARDYLDFGYYFDVWGQGTLVTVSSASTKGPSVFPLAPSSKSTSGGTAALGCLVKDYFPEPVTVSWNSGALTSGVHTFPAVLQSSGLYSLSSVVTVPSSSLGTQTYICNVNHKPSNTKVDKRVEPKSCGSGGGGSGGGGSGGGEVQLVESGGGLVQPGGSLRLSCTASGFSLTDYYYMTWVRQAPGKGLEWVGFIDPDDDPYYATWAKGRFTISRDNSKNTLYLQMNSLRAEDTAVYYCAGGDHNSGWGLDIWGQGTLVTVSSASTKGPSVFPLAPSSKSTSGGTAALGCLVKDYFPEPVTVSWNSGALTSGVHTFPAVLQSSGLYSLSSVVTVPSSSLGTQTYICNVNHKPSNTKVDKRVEPKSC
light: SYELTQPLSVSVALGQTARITCSGDKIGKKYVHWYQQKPGQAPVLVIYDDSDRPSGIPERFSGSNSGNTATLTISRAQAGDEADYYCQAWDMQSVVFGGGTKLTVLGQPKAAPSVTLFPPSSEELQANKATLVCLISDFYPGAVTVAWKADSSPVKAGVETTTPSKQSNNKYAASSYLSLTPEQWKSHRSYSCQVTHEGSTVEKTVAPTECSGSGGGGSGGGGSGGGEIVMTQSPSTLSASVGDRVIITCQASEIIHSWLAWYQQKPGKAPKLLIYLASTLASGVPSRFSGSGSGAEFTLTISSLQPDDFATYYCQNVYLASTNGANFGQGTKLTVLKRTVAAPSVFIFPPSDEQLKSGTASVVCLLNNFYPREAKVQWKVDNALQSGNSQESVTEQDSKDSTYSLSSTLTLSKADYEKHKVYACEVTHQGLSSPVTKSFNRGEC
notes: Fab-Fab: NVS3 Fab, (GSGGG)3 linker, NVS8 Fab; also called anti-BTC/anti-VEGF bispecific Fab; bispecific Fab-Fab
B3: NVS14 (bispecific antibody)
heavy: QVQLLESGGGLVQPGGSLRLSCAASGFTFSRYWISWVRQAPGKGLEWVSYIDSTGTFINYADSVKGRFTISRDNSKNTLYLQMNSLRAEDTAVYYCARGGSLFDYWGQGTLVTVSSASTKGPSVFPLAPSSKSTSGGTAALGCLVKDYFPEPVTVSWNSGALTSGVHTFPAVLQSSGLYSLSSVVTVPSSSLGTQTYICNVNHKPSNTKVDKRVEPKSCGSGGGGSGGGGSGGGEVQLVESGGGLVQPGGSLRLSCTASGFSLTDYYYMTWVRQAPGKGLEWVGFIDPDDDPYYATWAKGRFTISRDNSKNTLYLQMNSLRAEDTAVYYCAGGDHNSGWGLDIWGQGTLVTVSSASTKGPSVFPLAPSSKSTSGGTAALGCLVKDYFPEPVTVSWNSGALTSGVHTFPAVLQSSGLYSLSSVVTVPSSSLGTQTYICNVNHKPSNTKVDKRVEPKSC
light: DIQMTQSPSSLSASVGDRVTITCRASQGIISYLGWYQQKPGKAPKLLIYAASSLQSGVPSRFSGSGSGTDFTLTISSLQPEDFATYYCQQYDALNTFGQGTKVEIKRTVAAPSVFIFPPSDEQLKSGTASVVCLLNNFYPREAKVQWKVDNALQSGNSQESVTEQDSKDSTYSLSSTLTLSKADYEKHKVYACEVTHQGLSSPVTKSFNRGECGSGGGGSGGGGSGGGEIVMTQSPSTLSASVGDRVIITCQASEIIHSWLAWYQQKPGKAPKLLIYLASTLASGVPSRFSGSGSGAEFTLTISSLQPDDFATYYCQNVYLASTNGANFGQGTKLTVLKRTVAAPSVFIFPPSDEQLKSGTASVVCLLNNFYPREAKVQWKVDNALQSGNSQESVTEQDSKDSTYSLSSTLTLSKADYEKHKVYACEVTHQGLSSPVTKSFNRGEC
notes: Fab-Fab: NVS4 Fab, (GSGGG)3 linker, NVS8 Fab; also called anti-BTC/anti-VEGF bispecific Fab; bispecific Fab-Fab

Key:
Human VEGF165 [1] = molecular target: T4, Human VEGF165 (human, UniProt P15692 27-191); assay: competition ELISA: antibody pre-incubated with 400 pM VEGF-biotin, added to coated VEGFR2, streptavidin-HRP detection; y axis OD
T4 construct: mature; biotinylated in the VEGFR2 ELISAs; also called human VEGF-A; VEGF-A
Experimental: (§1) The plates were then washed 3 times using 1λTBST. The plates were blocked in 2% BSA diluent (0.1% Tween 20/0.1% TirtonX100) overnight. After blocking, the plates were washed 3 times using TB ST and then the sample mixture was added at 20 μl/well. The sample mixture consisted a final fixed concentration of VEGF-biotin (in-house) at 400 pM and a 15 point 1:2 serial dilution of the antibody starting at 20 nM. The sample mixture was pre-incubated for 1 hour prior to adding to the plate and then incubated for another hour at room temperature on the plate. Afterwards, the plate was washed 3 times using TBST and 20 μl/well of Streptavidin-HRP diluted at 1:5000 was added for an incubation time of 1 hour. The plates were washed 3 times in TBST and then 20 μl/well of TMB substrate was added. TMB is a chromogen that yields a blue color when oxidized. TMB was incubated for 10 minutes until the signal saturated in the no antibody samples, and then 10 μl/well of 2N sulfuric acid was added which then changes the blue color to yellow and this now has a maximum absorbance at 450 nm.

Human BTC-avitag-biotin [2] = molecular target: T1, Human BTC-avitag-biotin; assay: flow cytometry: inhibition of biotin-BTC binding to HKB11 cells over-expressing ErbB4; y axis Fluorescent Intensity
Experimental: (§2) In order to assess potency of the Fabs and bispecific in neutralizing binding of BTC to its receptor Erb 1 or ErbB4, the following assay was performed. HKB11 over-expressing either ErbB1 or ErbB4 cells were plated 1×10⁵ cells/well. Cells were washed once with FACS buffer by spun down at 1200 rpm for 5 minutes and supernatant removed. Next, the Fab sample dilutions and BTC were prepared in FACS buffer. Human BTC-avitag-biotin was diluted to a fixed concentration of 15 nM. The test Fab samples were prepared at a starting concentration of 40 nM and titrated for 9 points at a serial dilution of 1:2. Both biotin-BTC and the test Fab samples are incubated for 30 minutes at room temperature. The pre-incubated samples were then added to the cell plate at 100 μl per well in duplicate and incubated for 1 hour on ice. The plate was then washed once in FACS buffer and spun down at 1200 rpm for 5 minutes and supernatant removed. After suspending the cell pellet with 100 μl/well of diluted secondary antibody streptavidin-Alexa Fluor488 (1:2000) in FACS buffer, the cells were then incubated for 60 min on ice. The cells were washed once with FACS buffer and re-suspended in 120 μl of FACS buffer for flow cytometric analysis.
(§3) Measurements were performed on Attune Flow Cytometry machine. Data were analysed using the Flow Jo software. The live cell populations analysed were gated in forward and side scattering (FSC-A/SSC-A dot plot). The interval gate was established on the control histogram, which was obtained with sample incubated in streptavidin-Alexa Fluor488 only, and subsequently, determined percent of positive binding events of cells carrying membrane-bound receptor ErbB1 or ErbB4 and biotin-BTC. The median of fluorescence intensity (MFI) value was also derived for the live cell population. MFI values were then used to calculate for percent inhibition of test sample and subsequently plotted in GraphPad Prism 7.03 using nonlinear regression (curve fit) model to generate IC50 value.

Human BTC = molecular target: T2, Human BTC; assay: SPR Biacore T200, anti-Fab capture, antigen as analyte
Human VEGF165 [3] = molecular target: T4, Human VEGF165; assay: as above
Human BTC-avitag-biotin [4] = molecular target: T1, Human BTC-avitag-biotin; assay: flow cytometry: inhibition of biotin-BTC binding to HKB11 cells over-expressing ErbB1; y axis Fluorescent Intensity
Experimental: as §2, §3

[5] = molecular target: T3, membrane-bound human BTC on 293F-hBTC …; assay: flow cytometry on 293F cells with membrane-bound human BTC; y axis % Pos Binding
Experimental: After washing the cells, the cells were dissociated using Versene at 37° C. The cells were washed with FACS buffer and plated at 100 μl in a 96 well plate using cells at 1×10⁶ cells/ml. Then 100 μl of a serial dilution of antibodies starting at 50 nM was used. The cells were incubated, washed and then treated with the secondary anti-human Fab-FITC antibody. The antibodies only bound to the cells expressing BTC. After which the cells were washed and analyzed on the Attune Flow Cytometry. All data analysis was carried out using Flow Jo software.
In FIG. 6A, Flow cytometry was used to assess the binding of NVS11 to membrane-bound BTC using an anti-human Fab antibody for detection.

Human VEGF165 [6] = molecular target: T4, Human VEGF165; assay: competition ELISA: antibody pre-incubated with 400 pM VEGF-biotin, added to coated VEGFR2, streptavidin-HRP detection; y axis OD; remark: listed apart in the source
Experimental: as §1

T4 sequence (P15692 other isoform, or with tags, fused parts or gaps): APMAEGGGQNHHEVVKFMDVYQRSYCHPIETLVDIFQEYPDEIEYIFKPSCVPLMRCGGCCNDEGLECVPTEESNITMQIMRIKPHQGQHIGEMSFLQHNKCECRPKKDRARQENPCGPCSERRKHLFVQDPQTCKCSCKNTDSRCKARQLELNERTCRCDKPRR

Binder	IC50 (Human VEGF165 [1]) [nM]	IC50 (Human BTC-avitag-biotin [2]) [nM]	Kd (Human BTC) [nM]	Kd (Human VEGF165 [3]) [nM]	IC50 (Human BTC-avitag-biotin [4]) [nM]	EC50 [5] [nM]	IC50 (Human VEGF165 [6]) [nM]
B1	1.2	2.19	0.006	0.017	1.6	0.137	
B2		2.12	0.0018	0.0065	1.82	0.194	
B3		2.32	0.002	0.016	2.17		1.33
